Publication PMC5269746

Tests used:
[1] = system: HNH nanocarrier (H5WYG endosome release motif, DNA condensing motif, NLS) (synthetic construct); test: EMSA (agarose gel retardation); conditions: not given in the material (gel retardation methods text absent); ethidium bromide staining
[2] = system: GNH nanocarrier (GP41 endosome release motif, DNA condensing motif, NLS) (synthetic construct); test: EMSA (agarose gel retardation); conditions: not given in the material (gel retardation methods text absent); ethidium bromide staining

With pGL3 plasmid the binding (N/P ratio for complete retardation) [1] was 1 and the binding (N/P ratio for complete retardation) [2] was 1.
